Source: PMC5601999

What was measured:
FGF2-Y81pCMF-GFP (human) [1] = assay: z-scan fluorescence correlation spectroscopy (brightness analysis); protein on single GUVs with a plasma membrane-like lipid composition containing PI(4,5)P2, pre-incubated at least 30 min; average oligomeric state = cluster brightness / monomer brightness; GUVs containing membrane pores, protein surface concentration larger than 0.4 nmol/m^2
FGF2-Y81pCMF-GFP (human) [2] = assay: z-scan fluorescence correlation spectroscopy (brightness analysis); as a2; GUVs without membrane pores, protein surface concentration ≤0.4 nmol/m^2
FGF2-Y81pCMF-GFP (human) [3] = assay: z-scan fluorescence correlation spectroscopy (brightness analysis); as a2; GUVs containing membrane pores, protein surface concentration smaller than 0.4 nmol/m^2

| Substance | stoichiometry N (FGF2-Y81pCMF-GFP (human) [1]) [subunits] | stoichiometry N (average oligomeric state) (FGF2-Y81pCMF-GFP (human) [2]) | stoichiometry N (average oligomeric state) (FGF2-Y81pCMF-GFP (human) [3]) | stoichiometry N (average oligomeric state) (FGF2-Y81pCMF-GFP (human) [1]) |
| --- | --- | --- | --- | --- |
| FGF2-Y81pCMF-GFP (natural protein) | 8 to 12 | – | – | – |
| FGF2-Y81pCMF-GFP | – | 5.22 | 5.24 | 9.23 |
